Measured values taken from patent US20190194350A1.

What was measured:
[1] = biological target: His-tagged extracellular domain of EGFR (aa 20-643) (UniProt P00533); test: ELISA, coated EGFR-His
[2] = biological target: His-tagged extracellular domain of EGFR (aa 20-643) (UniProt P00533); test: ELISA, coated EGFR-His, detection with HRP anti-human Fc antibody; the legend paragraph 41 and paragraph 295 name Cetuximab as this control, the sheet prints hu225-IgG [panel EGFR-His]

B1: hu225-IgG (antibody, V domains shown)
VH: EVQLVESGGGLVQPGGSLRLSCAASGFSLTNYGVHWVRQAPGKGLEWLGVIWSGGNTDYNTPFTSRFTISRDNSKNTLYLQMNSLRAEDTAVYYCARALTYYDYEFAYWGQGTTVTVSS
VL: DIQLTQSPSFLSASVGDRVTITCRASQSIGTNIHWYQQKPGKAPKLLIKYASESISGVPSRFSGSGSGTEFTLTISSLQPEDFATYYCQQNNNWPTTFGAGTKLEIK
EC50 [1]: 0.2 nM | EC50 (read off the curve) [2]: 0.2 nM
